Test results taken from publication PMC2790986.

B1: PON2 (paraoxonase-2), Cys311 and Ser311 variants: N254Q (printed N254G) (protein)
parent chain: MGRLVAVGLLGIALALLGERLLALRNRLKASREVESVDLPHCHLIKGIEAGSEDIDILPNGLAFFSVGLKFPGLHSFAPDKPGGILMMDLKEEKPRARELRISRGFDLASFNPHGISTFIDNDDTVYLFVVNHPEFKNTVEIFKFEEAENSLLHLKTVKHELLPSVNDITAVGPAHFYATNDHYFSDPFLKYLETYLNLHWANVVYYSPNEVKVVAEGFDSANGINISPDDKYIYVADILAHEIHVLEKHTNMNLTQLKVLELDTLVDNLSIDPSSGDIWVGCHPNGQKLFVYDPNNPPSSEVLRIQNILSEKPTVTTVYANNGSVLQGSSVASVYDGKLLIGTLYHRALYCEL
B2: PON2 (paraoxonase-2), Cys311 and Ser311 variants: N323A (protein)
parent chain: MGRLVAVGLLGIALALLGERLLALRNRLKASREVESVDLPHCHLIKGIEAGSEDIDILPNGLAFFSVGLKFPGLHSFAPDKPGGILMMDLKEEKPRARELRISRGFDLASFNPHGISTFIDNDDTVYLFVVNHPEFKNTVEIFKFEEAENSLLHLKTVKHELLPSVNDITAVGPAHFYATNDHYFSDPFLKYLETYLNLHWANVVYYSPNEVKVVAEGFDSANGINISPDDKYIYVADILAHEIHVLEKHTNMNLTQLKVLELDTLVDNLSIDPSSGDIWVGCHPNGQKLFVYDPNNPPSSEVLRIQNILSEKPTVTTVYANNGSVLQGSSVASVYDGKLLIGTLYHRALYCEL
B3: PON2 (paraoxonase-2), Cys311 and Ser311 variants: N254A (protein)
parent chain: MGRLVAVGLLGIALALLGERLLALRNRLKASREVESVDLPHCHLIKGIEAGSEDIDILPNGLAFFSVGLKFPGLHSFAPDKPGGILMMDLKEEKPRARELRISRGFDLASFNPHGISTFIDNDDTVYLFVVNHPEFKNTVEIFKFEEAENSLLHLKTVKHELLPSVNDITAVGPAHFYATNDHYFSDPFLKYLETYLNLHWANVVYYSPNEVKVVAEGFDSANGINISPDDKYIYVADILAHEIHVLEKHTNMNLTQLKVLELDTLVDNLSIDPSSGDIWVGCHPNGQKLFVYDPNNPPSSEVLRIQNILSEKPTVTTVYANNGSVLQGSSVASVYDGKLLIGTLYHRALYCEL
B4: PON2 (paraoxonase-2), Cys311 and Ser311 variants: N323Q (protein)
parent chain: MGRLVAVGLLGIALALLGERLLALRNRLKASREVESVDLPHCHLIKGIEAGSEDIDILPNGLAFFSVGLKFPGLHSFAPDKPGGILMMDLKEEKPRARELRISRGFDLASFNPHGISTFIDNDDTVYLFVVNHPEFKNTVEIFKFEEAENSLLHLKTVKHELLPSVNDITAVGPAHFYATNDHYFSDPFLKYLETYLNLHWANVVYYSPNEVKVVAEGFDSANGINISPDDKYIYVADILAHEIHVLEKHTNMNLTQLKVLELDTLVDNLSIDPSSGDIWVGCHPNGQKLFVYDPNNPPSSEVLRIQNILSEKPTVTTVYANNGSVLQGSSVASVYDGKLLIGTLYHRALYCEL
B5: PON2 (paraoxonase-2), Cys311 and Ser311 variants: N254A/N323A (protein)
parent chain: MGRLVAVGLLGIALALLGERLLALRNRLKASREVESVDLPHCHLIKGIEAGSEDIDILPNGLAFFSVGLKFPGLHSFAPDKPGGILMMDLKEEKPRARELRISRGFDLASFNPHGISTFIDNDDTVYLFVVNHPEFKNTVEIFKFEEAENSLLHLKTVKHELLPSVNDITAVGPAHFYATNDHYFSDPFLKYLETYLNLHWANVVYYSPNEVKVVAEGFDSANGINISPDDKYIYVADILAHEIHVLEKHTNMNLTQLKVLELDTLVDNLSIDPSSGDIWVGCHPNGQKLFVYDPNNPPSSEVLRIQNILSEKPTVTTVYANNGSVLQGSSVASVYDGKLLIGTLYHRALYCEL

Test: 3OC12-HSL inactivation by CHO lysate, bioassay
Details: glycan lost; control: wild-type PON2 Cys311
In the case of B1, the enzymatic_activity is reported as “no change”. With B2 the enzymatic_activity was “decreases”. For B3, the enzymatic_activity was “no change”. In the case of B4, the enzymatic_activity is reported as “decreases”. With B5 the enzymatic_activity was “decreases”.
